Measured values reported in patent publication US5861477A (priority 1996, dated 1999).
Where “and” joins values, the source holds several entries; their conditions need not be identical. Equal entries are not always repeated.

Experiments:
yeast RNA [1] = assay: Ribonuclease activity: hydrolysis of yeast RNA; format: biochemical
Protocol: Measurement of Ribonuclease Activity. The catalytic activity of RNase and RnPepz were determined by their hydrolytic effects on yeast RNA (Kunitz, M. (1946) J. Biol. Chem. 164, 563-569; Gutte, B. and […]. Biol. Chem. 246, 1922-1941). […] The decrease in absorbance at 300 nm with time was measured on the recording spectrophotometer. Reaction mixtures that contained no catalyst as well as mixtures containing LyPepz or other cyclic peptides unrelated to RNase were used as controls. The kinetic parameters of the hydrolytic activities were determined by Lineweaver-Burk plots (Lineweaver, H. and Burk, D. (1934) J. Amer. Chem. Soc. 56, 658-666) of 1/absorbance change per minute against 1/substrate concentration in mg per ml. […] The change in absorbance with the test samples (RnPepz) was correlated for the small change obtained with the same amount of unrelated peptides (negative controls) acting on the corresponding concentration of substrate. […] The effects of disulfide-bond reduction on RNase and RnPepz activities were determined by premixing each catalyst (RNase, 1.095×10^-4 μmole; […] The reactions were monitored by the decrease in absorbance at 300 nm as above. The effects of inhibitors (denatured DNA or Ag^+) on activities were also done by pre-mixing RNase or RnPepz with denatured DNA (250 μg) or with 10 molar excess of AgNO3 prior to addition to RNA, using the same amounts of catalyst and substrate described for DTT. Denaturation of DNA was done by boiling a solution in water (1 mg/ml) for 10 min, then chilling immediately in ice.

[2] = test system: M. lysodeikticus cell wall; assay: Lysozyme activity: hydrolysis of M. lysodeikticus; format: biochemical, Micrococcus lysodeikticus
Protocol: Measurement of Lysozyme Activity. […] The decrease in turbidity was measured at 450 nm on a recording spectrophotometer. […] Kinetic constants were determined from the linear plots of 1/initial velocity (in change of absorbance/min) against 1/substrate concentration in mg/ml as described (Lineweaver, H. and Burk, D. (1934) J. Amer. Chem. Soc. 56, 658-666). […] Applicant always dedicated a separate spectrophotometer cuvette for this positive control. […] The decrease in turbidity was monitored at room temperature at 450 nm.

[3] = test system: M. lysodeikticus cell wall; conditions: 0.125M NaCl; Neville et al. 1972; cited from earlier work
yeast RNA [4] = conditions: Gutte et al. 1971; Edelhock and Coleman 1956; cited from earlier work
[5] = 10 molar excess, pre-mixed 3 hr
[6] = hydrolysis of M. lysodeikticus, 25° C., 0.125M NaCl
[7] = hydrolysis of yeast RNA, 0.1M sodium acetate, pH 5.0, 25° C.

Molecule	hydrolytic activity on yeast RNA (yeast RNA [1]; in words)	activity on M. lysodeikticus in presence of histamine [2, 5]	activity on M. lysodeikticus in presence of imidazole [2, 5]	activity on M. lysodeikticus in presence of tryptamine [2, 5]	Km [2, 6] [mg/L]	kcat [2, 6] [OD units/μmole/sec]	Km reported value [3] [mg/L]	activity on yeast RNA in presence of denatured DNA (yeast RNA [1]; 250 μg denatured DNA)	activity on yeast RNA in presence of Ag^+ (heavy metals) (yeast RNA [1]; 10 molar excess of AgNO3)	hydrolytic activity on yeast RNA at 10° C. (yeast RNA [1]; 10° C.)	Km (yeast RNA [1]; [7]) [mg/L]	kcat (yeast RNA [1]; [7]) [OD units/μmole/sec]	Km reported values (yeast RNA [4])
LYZ: hen egg lysozyme	no effect	completely inhibited	completely inhibited	completely inhibited	120.6 ± 4.0	9.26 ± 0.12	129						
RNase: bovine ribonuclease A (protein, UniProt P61823 27-150, looked up) Ribonuclease pancreatic: KETAAAKFERQHMDSSTSAASSSNYCNQMMKSRNLTKDRCKPVNTFVHESLADVQAVCSQKNVACKNGQTNCYQSYSTMSITDCRETGSSKYPNCAYKTTQANKHIIVACEGNPYVPVHFDASV								completely inhibited	completely inhibited	neither RnPepz nor RNase had any measurable hydrolytic activity	1254 ± 460	14.05 ± 6.85	1.20 mg/mL and 1.25 mg/mL
